According to patent publication US20230257714A1, “METHODS AND COMPOSITIONS FOR GENERATING HUMAN INDUCED MESENCHYMAL STEM CELLS” (SmartCella Solutions AB, priority 2022, published 2023):

Columns and labels:
iMSCs [1] = assay: quantitative real-time PCR of immunomodulatory marker genes in iMSCs treated with immune stimulators; format: cell-based, human; conditions: iMSCs 100k cells/sample; dsRNA 500 ng/sample or IFNr 10 ng/ml; 24 hours; particularly IDO1, TLR3 and HGF; control genes CD73, CD90, CD105 not upregulated; FIG. 5
Method: In a first set of studies, iMSCs were treated with immune stimulators, either double-strand RNA (dsRNA) or recombinant human interferon gamma (IFNr)(R&D Systems, Cat. #35-IF-100). iMSCs (100k cells/sample) were cultured with dsRNA (500 ng/sample) or IFNr (10 ng/ml) for 24 hours. […] Immunostimulatory marker genes examined were: RIG1, TLR3, COX2, IDO1, HGF and TGF-beta. Control genes (for MSC surface markers) examined were: CD73, CD90 and CD105.

iMSCs [2] = assay: IL-10 secretion by iMSCs after IFNr treatment (ELISA); format: cell-based, human; conditions: IFNr 20 ng/mL or 50 ng/mL for three days; media supernatant; FIG. 7
Method: In a third set of experiments, the production of the anti-inflammatory factor IL-10 by the iMSCs was examined after treatment with IFNr. iMSCs (50k cells/well of a 24 well plate; approx. 25,000 cells/cm^2) were treated with low concentration (20 ng/mL) or high concentration (50 ng/mL) IFNr for three days to stimulate secretion of IL-10. The control group was the same culture conditions but without IFNr treatment. After three days, media supernatant was collected and the level of IL-10 secretion was quantified by standard ELISA analysis (human IL-10 Quantikine ELISA kit, R&D Systems, Cat. #D1000B).

B1: IFNr: recombinant human interferon gamma (R&D Systems), immune stimulator (protein, UniProt P01579 24-161, looked up)
Interferon gamma: QDPYVKEAENLKKYFNAGHSDVADNGTLFLGILKNWKEESDRKIMQSQIVSFYFKLFKNFKDDQSIQKSVETIKEDMNVKFFNSNKKKRDDFEKLTNYSVTDLNVQRKAIHELIQVMAELSPAAKTGKRKRSQMLFRG
iMSCs [1]
  expression of genes associated with immunostimulation (RIG1, TLR3, COX2, IDO1, HGF, TGF-beta): increased expression
iMSCs [2]
  secretion of IL-10 by iMSCs: dose-dependent
